The values below come from US20050053613A1 (MOUNT SINAI SCHOOL OF MEDICINE, published 2005).

To fix the notation:
B2: CEA liberated by PIPLC from CEA-GFP transfected 293T cells (other, UniProt P06731 35-685, looked up)
chain: KLTIESTPFNVAEGKEVLLLVHNLPQHLFGYSWYKGERVDGNRQIIGYVIGTQQATPGPAYSGREIIYPNASLLIQNIIQNDTGFYTLHVIKSDLVNEEATGQFRVYPELPKPSISSNNSKPVEDKDAVAFTCEPETQDATYLWWVNNQSLPVSPRLQLSNGNRTLTLFNVTRNDTASYKCETQNPVSARRSDSVILNVLYGPDAPTISPLNTSYRSGENLNLSCHAASNPPAQYSWFVNGTFQQSTQELFIPNITVNNSGSYTCQAHNSDTGLNRTTVTTITVYAEPPKPFITSNNSNPVEDEDAVALTCEPEIQNTTYLWWVNNQSLPVSPRLQLSNDNRTLTLLSVTRNDVGPYECGIQNELSVDHSDPVILNVLYGPDDPTISPSYTYYRPGVNLSLSCHAASNPPAQYSWLIDGNIQQHTQELFISNITEKNSGLYTCQANNSASGHSRTTVKTITVSAELPKPSISSNNSKPVEDKDAVAFTCEPEAQNTTYLWWVNGQSLPVSPRLQLSNGNRTLTLFNVTRNDARAYVCGIQNSVSANRSDPVTLDVLYGPDTPIISPPDSSYLSGANLNLSCHSASNPSPQYSWRINGIPQQHTQVLFIAKITPNNNGTYACFVSNLATGRNNSIVKSITVSASGTSPGLSA
notes: Soluble form in the supernatant of PIPLC treated transfectants; also called B9 reactive material

In assay [1] the target is B2. Nature of the assay: absorption on transfected hybridoma cells, immunoblot with mAb B9. The method, then: (§1) CEA exists as a GPI anchored glycoprotein on the surface of IECs. This molecule can be cleaved using the enzyme PIPLC. […] Absorption of CEA by either CD4 or CD8 was determined by immunoblotting with mAb B9. […] These findings are consistent with functional properties previously ascribed to gp180.
On the technique in general: Immunoblotting shows a protein as a band on a membrane.

Assay [2] concerns the target T1, human CD4 expressed on murine T cell hybridoma (3G4) (human, UniProt P01730 26-458).
T1 construct: whole, on cells
Briefly: absorption of PIPLC-released CEA on transfected hybridoma cells, immunoblot with mAb B9. The method, then:
as §1

B1: human CD8α expressed on murine T cell hybridoma (3G8) (receptor)
chain: not shown
notes: whole, on cells; also called CD8α chains
With B1, in assay [1], the binding result is “binds”. With B2, the binding result in assay [2] is “no binding”.
